Among the data in patent publication US20230272415 are activity values, retold here.

Common to all, as to assay: cell_activity
Data set [1] has as its system ZFN 59581 (synthetic construct). Conditions: pair with 59580; 6 ug mRNA, activated T cells; 83 at 2 ug, 72 at 0.5 ug.
The subject of data set [2] is ZFN 59440 (synthetic construct). As to conditions: pair with 59441; 6 ug mRNA, activated T cells; 82 at 2 ug, 59 at 0.5 ug.
In data set [3] the test system is ZFN 59580 (synthetic construct). As to conditions: pair with 59581; 6 ug mRNA, activated T cells; 83 at 2 ug, 72 at 0.5 ug.
Data set [4] relates to ZFN 59489 (synthetic construct). Conditions: pair with 59488; 6 ug mRNA, activated T cells; 84 at 2 ug, 60 at 0.5 ug.
Data set [5] relates to ZFN 59557 (synthetic construct). As to conditions: pair with 59558; 6 ug mRNA, activated T cells; 80 at 2 ug, 55 at 0.5 ug.
The subject of data set [6] is ZFN 59558 (synthetic construct). As to conditions: pair with 59557; 6 ug mRNA, activated T cells; 80 at 2 ug, 55 at 0.5 ug.
In data set [7] the test system is ZFN 59488 (synthetic construct). As to conditions: pair with 59489; 6 ug mRNA, activated T cells; 84 at 2 ug, 60 at 0.5 ug.
In data set [8] the test system is ZFN 59441 (synthetic construct). As to conditions: pair with 59440; 6 ug mRNA, activated T cells; 82 at 2 ug, 59 at 0.5 ug.

In data set [1], “ATAGTGCTGCACAAGGCTGACCACATCC (double strand) [CISH exon 3 target of 59581]” displayed an activity of 82 % cleavage.
In data set [2], “CCAGCAAAGGACGAGGTCTAGAAGGCAG (double strand) [CISH exon 2 target of 59440]” displayed an activity of 84 % cleavage.
In data set [3], “CCGGAAAGGCCAGGATGCGTGGCCTGGA (double strand) [CISH exon 3 target of 59580]” showed an activity of 82 % cleavage.
For “GAGGAGGTGGCAGAGGGTACCCCAGCCC (double strand) [CISH exon 2 target of 59489]”, the activity in data set [4] was found to be 89 % cleavage.
In turn, “GAGTCCAGACGGAAGCTGGAGTCGGCAT (double strand) [CISH exon 3 target of 59557]” gave an activity in data set [5] of 84 % cleavage.
The sequence “GATGCGTGGCCTGGACAAGCAGTTGGAG (double strand) [CISH exon 3 target of 59558]” returned an activity in data set [6] of 84 % cleavage.
“GGAAGGCCCCAGCAGGCAAGGGCTGCAT (double strand) [CISH exon 2 target of 59488]” came in with an activity in data set [7] of 89 % cleavage.
“GTGGAGCGGACTGGGCAGCGGCCCCTGT (double strand) [CISH exon 2 target of 59441]”: the activity in data set [8] was 84 % cleavage.
